Columns and labels:
[1] = molecular target: PHD finger of human BPTF protein (human); test: ITC
chromodomain of CBX5 = test: ITC

Substance | fold weaker Kd than the native H3K4me3 peptide [1] | fold tighter binding than the H3KC9me3 peptide (chromodomain of CBX5)
H3KC4me3 peptide MLA (methyllysine analog of H3K4me3) | 13 fold | 
trimethylated H3 lysine 9 peptide |  | 6 fold

— paper PMC5780203
